PMC11962161

Tests used:
[1] = biological target: MBP-PrLD (purified recombinant FCA C-terminal half containing prion-like domains) (Arabidopsis); assay: SEC-MALS; Superdex-200 10/300 GL, 40 mM Tris-HCl pH 7.4, 500 mM NaCl; protein at 2 mg/mL; self-association
[2] = biological target: FCA-mScarlet-I (Arabidopsis thaliana); assay: single-particle tracking with stepwise photobleaching (SlimVar microscopy); fluorescent FCA fusions in nuclei of living Arabidopsis root tissue, 10 ms/frame; molecules per tracked particle from initial intensity over single-molecule brightness; control and sof78 backgrounds for FCA-eGFP

stoichiometry N [2]	Substance	stoichiometry N [1]
–	MBP-PrLD (purified recombinant FCA C-terminal half containing prion-like domains) (domain or fragment)	> 100 molecules
4 molecules	FCA-mScarlet-I (natural protein)	–
